Experimental data reported in publication PMC9669668.
Where two headings read alike, the source gives them in different places.

Assays:
[1] = molecular target: nucleotide-binding domain of Hsp70 (Hsp70 NBD, aa 1–382) (human) (UniProt P0DMV8); assay: ITC
[2] = molecular target: nucleotide-binding domain of Hsp70 (Hsp70 NBD, aa 1–382) (human) (UniProt P0DMV8); assay: ITC; remark: listed apart in the source

UniProt P0DMV8, sequence (P0DMV8 1-382): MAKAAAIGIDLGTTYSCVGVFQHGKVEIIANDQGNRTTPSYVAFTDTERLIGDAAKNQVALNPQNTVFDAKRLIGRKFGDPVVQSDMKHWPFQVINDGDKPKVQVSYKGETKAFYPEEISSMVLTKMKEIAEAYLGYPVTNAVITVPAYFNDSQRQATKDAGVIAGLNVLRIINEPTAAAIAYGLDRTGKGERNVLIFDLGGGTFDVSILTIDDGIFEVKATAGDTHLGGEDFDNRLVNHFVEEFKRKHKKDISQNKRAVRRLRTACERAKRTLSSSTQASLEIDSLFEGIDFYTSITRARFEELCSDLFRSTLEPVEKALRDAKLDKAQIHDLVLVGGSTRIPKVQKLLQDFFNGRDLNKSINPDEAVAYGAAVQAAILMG

| Kd [1] [µM] | Kd [2] [µM] | stoichiometry N [2] | Substance |
| --- | --- | --- | --- |
| 56.5 | 15.9 | 1 | FAF1 (aa 1–171) (from UniProt Q9UNN5 1-171) (domain or fragment) |
| 3.1 | 3.1 | 1 | FAF1 L-UBL1 (aa 91–171) (from UniProt Q9UNN5 91-171) (domain or fragment) |
